Ends that are not written are not given here.
Molecular target: T1, Rat Y4/PP1 (clone) (rat), Q63447
T1 chain: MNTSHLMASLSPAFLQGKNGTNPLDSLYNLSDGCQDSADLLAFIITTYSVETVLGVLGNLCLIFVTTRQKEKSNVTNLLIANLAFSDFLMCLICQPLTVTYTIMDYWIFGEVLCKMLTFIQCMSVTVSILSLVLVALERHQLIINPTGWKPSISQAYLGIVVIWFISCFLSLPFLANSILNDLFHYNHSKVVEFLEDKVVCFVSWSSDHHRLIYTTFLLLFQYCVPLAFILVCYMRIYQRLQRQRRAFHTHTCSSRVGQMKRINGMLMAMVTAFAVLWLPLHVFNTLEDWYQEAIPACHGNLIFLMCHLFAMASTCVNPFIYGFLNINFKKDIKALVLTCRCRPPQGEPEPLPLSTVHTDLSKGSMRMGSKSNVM
Experiment: competition with rat [125I]PP on the rat Y4/PP1 clone
Conditions: remark: other sources report otherwise

## PAEDLARYYSALRHYINLITRQRY (ends and bridges not checked) [p(13-36)NPY, P01304]
  IC50: > 1 µM

— patent US5919901
